Experimental data taken from patent US20250257133A1 (ADAGENE PTE, published 2025).
Values belong to the binder of their own block, whether it stands above or below them.

Experiments:
[1] = biological target: Human CTLA4 (ligand competition ELISA) (human, UniProt P16410 36-161, limits assumed); test: ELISA, blocking of CTLA4-CD80
[2] = biological target: T1, TROP2 on tumor cell lines (UniProt P09758 27-323, limits assumed); test: flow cytometry, NCI-N87 cells
T1 construct: whole, on cells; also called tumor-associated calcium signal transducer 2; TROP2 on H292, NCI-N87, HT-29
T1 sequence (looked up): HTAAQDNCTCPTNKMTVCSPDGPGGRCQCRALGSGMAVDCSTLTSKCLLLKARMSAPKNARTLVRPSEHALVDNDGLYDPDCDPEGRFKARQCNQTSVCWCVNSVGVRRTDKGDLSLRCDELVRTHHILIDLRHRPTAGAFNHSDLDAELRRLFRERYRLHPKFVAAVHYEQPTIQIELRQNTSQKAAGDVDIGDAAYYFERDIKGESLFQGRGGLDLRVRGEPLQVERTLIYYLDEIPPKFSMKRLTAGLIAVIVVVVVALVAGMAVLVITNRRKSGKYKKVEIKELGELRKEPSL
Experimental: (§1) H292, NCI-N87, or HT29 cells were cultured and seeded in 96-well plates at 1.0×10⁵ cells/well and incubated with serially diluted test anti-TROP2 BsAbs for 30 minutes at 4° C. in 2% FBS/RPMI1640 buffer. Next, the cells were washed twice with DPBS and further incubated with secondary anti-human IgG antibodies (APC-anti-human IgG Fc antibody, 1:300 dilution for H292 cell; APC-F (ab′) 2 fragment goat anti-human IgG (H+L), 1:500 dilution for NCI-N87 and HT29 cells) for 30 minutes at 4° C. Finally, the cells were washed twice with DPBS and resuspended in FACS buffer for flow cytometry analysis. For analysis, the MFI values versus concentrations were plotted using FlowJo 10 software (FlowJo LLC) and the data were further fitted with four-parameter non-linear regression to obtain EC₅₀ values by GraphPad Prism version 7 for Windows.

[3] = biological target: T1, TROP2 on tumor cell lines; test: flow cytometry, HT-29 cells
Experimental: as §1

[4] = biological target: T1, TROP2 on tumor cell lines; test: flow cytometry, H292 cells
Experimental: as §1

[5] = biological target: Human CD28 (ELISAs of Examples 4 and 13) (human, UniProt P10747 19-152, limits assumed); test: ELISA, blocking of CD28-CD80
Human CD28 on cells = biological target: T2, Human CD28 on cells (human, UniProt P10747 19-220); test: flow cytometry, Jurkat cells
T2 construct: Jurkat E6-1 cells, primary human T cells, or transfected HEK293F cells; also called CD28 on Jurkat cells; CD28 on human CD3+ T cells
Experimental: Next, the cells were washed twice with DPBS and further incubated with a APC-anti-human IgG Fc secondary antibody (1 μg/mL, 100 μL/well, Biolegend) for 30 minutes at 4° C. Finally, the cells were washed twice with DPBS and suspended in FACS buffer for flow cytometry analysis. For analysis, the Mean Fluorescence Intensity (MFI) values versus concentrations were plotted using FlowJo 10 software (FlowJo LLC) and the data were further fitted with four-parameter non-linear regression to obtain EC₅₀ values by GraphPad Prism version 7 for Windows, GraphPad Software, La Jolla California USA, www.graphpad.com.

[6] = biological target: T3, Recombinant human CD28-Fc (human, UniProt P10747 19-152); test: ELISA, coated CD28-Fc
T3 construct: not shown: Fc part

[7] = biological target: T4, Recombinant mouse CD28-Fc (mouse, UniProt P31041 20-150); test: ELISA on coated recombinant mouse CD28-Fc, HRP anti-human IgG (Fab specific), A450; panel 'Mouse CD28'
T4 construct: not shown: Fc part

[8] = biological target: T5, His-tagged human CTLA4 protein (human, UniProt P16410 36-161, limits assumed); test: Octet BLI, mAb captured;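 also: Anti-human Fc biosensors captured the antibodies, then His-tagged protein analytes at 100 nM associated for 300 s and dissociated for 300 s, fitted by a 1:1 Langmuir model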
T5 construct: not shown: His tag

[9] = biological target: T6, His-tagged human CD28 protein (human, UniProt P10747 19-152); test: Octet BLI, mAb captured;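 also: Anti-human Fc biosensors captured the antibodies, then His-tagged protein analytes at 100 nM associated for 300 s and dissociated for 300 s, fitted by a 1:1 Langmuir model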
T6 construct: not shown: His tag

T5 sequence (P16410 36-161 limits assumed): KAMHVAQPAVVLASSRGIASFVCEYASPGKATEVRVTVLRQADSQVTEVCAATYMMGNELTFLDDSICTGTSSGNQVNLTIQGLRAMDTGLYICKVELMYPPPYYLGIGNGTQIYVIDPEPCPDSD
Human CTLA4 (ligand competition ELISA), sequence (P16410 36-161 limits assumed): as above
T4 sequence (P31041 20-150 limits assumed): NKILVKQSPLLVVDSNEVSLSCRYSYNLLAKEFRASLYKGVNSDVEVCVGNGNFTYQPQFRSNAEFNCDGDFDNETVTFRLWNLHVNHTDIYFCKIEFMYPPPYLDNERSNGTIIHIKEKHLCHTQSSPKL

IC50 [1]: 37.2 nM
B1: TY21580 (antibody, V domains shown)
VH: EVQLVESGGGLVQPGGSLRLSCAASGYSISSGYHWSWIRQAPGKGLEWLARIDWDDDKYYSTSLKSRLTISRDNSKNTLYLQLNSLRAEDTAVYYCARSYVYFDYWGQGTLVTVSS
VL: DIQLTQSPSSLSASVGDRVTITCRASQSVRGRFLAWYQQKPGKAPKLLIYDASNRATGIPSRFSGSGSGTDFTLTISSLQPEDFATYYCQQSSSWPPTFGQGTKVEIKR

EC50 [2]: 0.911 nM
EC50 [3]: 0.559 nM
EC50 [4]: 0.822 nM
B2: TY27571 (bispecific antibody, human IgG1, kappa, N297A)
light: DIQLTQSPSSLSASVGDRVTITCRASQDVSIAVAWYQQKPGKAPKLLIYSASYRYTGVPARFSGSGSGTDFTLTISSLQPEDFATYYCQQHYITPLTFGQGTKVEIKRTVAAPSVFIFPPSDEQLKSGTASVVCLLNNFYPREAKVQWKVDNALQSGNSQESVTEQDSKDSTYSLSSTLTLSKADYEKHKVYACEVTHQGLSSPVTKSFNRGEC
heavy: QVQLLQSGSELKKPGASVKVSCKASGYTFTNYGINWVRQAPGQGLEWLGWIHTYTGEPTYTDDFKGRFVFSLDTSVSTAYLQISSLKADDTAVYYCARGGFGSSYWYFDVWGQGTLVTVSSASTKGPSVFPLAPSSKSTSGGTAALGCLVKDYFPEPVTVSWNSGALTSGVHTFPAVLQSSGLYSLSSVVTVPSSSLGTQTYICNVNHKPSNTKVDKKVEPKSCDKTHTCPPCPAPELLGGPSVFLFPPKPKDTLMISRTPEVTCVVVDVSHEDPEVKFNWYVDGVEVHNAKTKPREEQYASTYRVVSVLTVLHQDWLNGKEYKCKVSNKALPAPIEKTISKAKGQPREPQVYTLPPSRKKLTKNQVKLTCLVKGFYPSDIAVEWESNGQPENNYKTTPPVLDCDGSFFLYSKLTVDKSRWQQGNVFSCSVMHEALHNHYTQKSLSLSPGK
chain: DIQLTQSPSSLSASVGDRVTITCRASQSVDFHGISFLHWYQQKPGKAPKLLIYAASSLQSGVPSRFSGSGSGTDFTLTISSLQPEDFATYYCQQSYRSPRTFGQGTKVEIKGGGGSGGGGSGGGGSGGGGSEVQLVESGGGLVQPGGSLRLSCAASGFSLSTGGVGVSWIRQAPGKGLEWIGEIYHSGSTYYSPSLKSRVTISRDNSKNTLYLQLNSLRAEDTAVYYCARYEYYYYDFDYWGQGTLVTVSSEPKSSDKTHTCPPCPAPELLGGPSVFLFPPKPKDTLMISRTPEVTCVVVDVSHEDPEVKFNWYVDGVEVHNAKTKPREEQYASTYRVVSVLTVLHQDWLNGKEYKCKVSNKALPAPIEKTISKAKGQPREPQVYTDPPSRDELTKNQVSLTCLVDGFYPSDIAVEWESNGQPENCYKTTPPVLDSDGSFFLYSKLTVDKSRWQQGNVFSCSVMHEALHNHYTQDSLSLSPGK
notes: also called anti-TROP2xCD28 BsAb

IC50 [5]: 0.21 nM
EC50 (Human CD28 on cells): 0.59 nM
EC50 [6]: 1.55 nM
binding result [7]: no binding (tested: about 10^-6.9 M)
Kd [8]: 3.13 nM
koff [8]: 0.00344 s⁻¹
kon [8]: 1.1e+06 M⁻¹ s⁻¹
Kd [9]: 4.44 nM
koff [9]: 0.000437 s⁻¹
kon [9]: 98500 M⁻¹ s⁻¹
B3: TY24890 (antibody, human IgG4 S228P, kappa, V domains shown)
VH: EVQLVESGGGLVQPGGSLRLSCAASGYSISSGHHWGWIRQAPGKGLEWIGEIYHSGSTYYSPSLKSRVTISRDNSKNTLYLQLNSLRAEDTAVYYCARRELGYAYFDYWGQGTLVTVSS
VL: EIVLTQSPATLSLSPGERATLSCRASQDIRKYLAWYQQKPGQAPRLLIYAASTLQSGVPARFSGSGSGTDFTLTISSLEPEDFAVYYCQQYYRTPLTFGQGTKVEIKR
notes: hIgG4/S241P
